This note sets out measurements from PMC8136665.

“And” between values parts separate entries of the source, which are not always exact repeats. Equal entries are not always repeated.

Experiment [1] has as its target SARS-CoV-2 spike (S) glycoprotein ectodomain, prefusion-stabilised trimer (SARS-CoV-2) (UniProt P0DTC2). Briefly: negative-stain electron microscopy.
The target is the same in experiment [2]. Briefly: SPR.

As a reminder, the stoichiometry N is a count of units in the complex or per binding partner. The term Kd denotes the equilibrium constant for the complex coming apart. A lower Kd goes with higher affinity.

“DC-SIGN extracellular domain (Dendritic Cell-Specific Intercellular adhesion molecule-3-Grabbing Non-integrin) (from UniProt Q9NNX6 66-404) (domain or fragment)”: the stoichiometry N in experiment [1] is 1 and > 2. Further, in experiment [2], the equilibrium dissociation constant (Kd) is 11.9 µM and 4.33 µM. For the substance “L-SIGN extracellular domain (liver/lymph node-specific intracellular adhesion molecules-3 grabbing non-integrin) (from UniProt Q9H2X3 78-399) (domain or fragment)”, the Kd in experiment [2] is 1.8 µM and 1.66 µM. As to “MGL (Macrophage galactose lectin) extracellular domain (domain or fragment)”, in experiment [2], the Kd was found to be 7 µM.
